The values below are quoted from earlier work in PMC2865993.

For orientation: Kd means the equilibrium constant for the complex coming apart.

This data set addresses actin filament (sides) (Oryctolagus cuniculus) (UniProt P68135).

“formin (mDia1 FH2) FH2 (from UniProt O08808)”: the Kd was 3000 nM.
